Source: IntAct's records for PubMed 18854162

B1: CCCH-type zinc finger protein oma-1 (Caenorhabditis elegans), G5EC86 (parent)
chain: MNVNGENNEKIDEHHLESSLAGVPTLPVSPLDHAKDLSQTNPNAQIGDLVTQTANLIAIKKQLLEDIAFNQHIQSMQVRAIQSFPQNNQVAPPFQQFDPRRRGLARMQKPESYKTVICQAWLESKTCSFADNCRFAHGEEELRPTFVEPLQNNKYKTKLCDKYTTTGLCPYGKRCLFIHPDHGPNAYIRADKLLEVSQRHALADIRDQMEQHIMTNGRIAAPPLSAIQHPLEMFARPSTPDEPAAKLPLGPTPVSTRGPRYELPTKELHDAEGAMTYPPSRWPLDPSMFALDAWNMAHRPASPLDSMVLGSAPNAGSFGMLGKQNTPGGVSGYSSAGSTPSQDLSSSSLNAASAAAAAAYFANSAVAQSLLMKSVATDPMMSCNGPFSPMPGFDQLAENMTKHLNLW
partner: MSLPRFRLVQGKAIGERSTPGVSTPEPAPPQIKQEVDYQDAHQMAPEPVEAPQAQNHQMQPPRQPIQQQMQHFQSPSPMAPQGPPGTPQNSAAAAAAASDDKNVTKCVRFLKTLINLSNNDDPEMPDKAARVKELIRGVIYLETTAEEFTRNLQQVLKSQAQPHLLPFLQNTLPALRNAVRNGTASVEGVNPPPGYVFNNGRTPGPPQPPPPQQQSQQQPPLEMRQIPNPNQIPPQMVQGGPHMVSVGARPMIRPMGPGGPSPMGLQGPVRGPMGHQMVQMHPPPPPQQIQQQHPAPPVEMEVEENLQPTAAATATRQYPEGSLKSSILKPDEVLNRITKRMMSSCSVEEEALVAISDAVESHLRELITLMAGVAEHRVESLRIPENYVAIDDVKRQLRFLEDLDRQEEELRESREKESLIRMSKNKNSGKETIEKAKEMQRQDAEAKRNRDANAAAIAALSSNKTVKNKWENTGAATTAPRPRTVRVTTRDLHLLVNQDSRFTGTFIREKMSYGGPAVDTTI

Variants of: B1
Settings: with taf4_caeel taf-4, O61707
For T239A, the “effect of a mutation on the interaction” value was “decreasing interaction”.
